“Also recorded” adds a separate entry of the source.
Assays:
[1] = test system: Aβ generation; assay: Aβ generation / APP processing in HeLaSwe cells expressing FG01 (Western blot, ELISA); type: cell-based, human
Description: Expression of secreted Aβ, sAPPα, β-CTF, total APP, α-tubulin and FG01 were detected by Western blots.
HeLa/swe cells were transfected with GSK-3β and/or FG01 as indicated. The levels of Aβ40/42 were determined by modified ELISA. The expression of GSK-3β and β-catenin were shown by Western blots. n=4.
HeLaSwe cells were transfected with FG01 or controls. Conditioned media and lysates from these cells were collected. The levels of Aβ40 and Aβ42 were quantified using ELISA kits (Invitrogen), following the manufacturer's protocols.
To corroborate this, FG01 was over expressed in N2aSwe cells.

[2] = test system: β-secretase (BACE1); assay: β-secretase (BACE1) in vitro activity and protein level in FG01-overexpressing cells; type: cell-based, mouse
Description: The in vitro activity of β-secretase (BACE1) was assayed using a commercial kit (Calbiochem), following the manufacturer's protocol.
To determine whether FG01 reduces Aβ generation by modulating β-secretase activities, β-secretase (BACE1) activity and the protein level of BACE1 in vitro in FG01-overexpressing cells was examined and both were unchanged. FG01 cell clones identified by RHKO were treated with DMSO (control) or 2 μg/ml doxycycline for 72 hrs. In some experiments, N2a cells were transfected with control vector (Con) or FG01 vector for 48 hrs. Cell lysates were assayed for β-secretase activity. FG01 was transfected into N2a cells and equal protein lysates were subjected to SDS-PAGE and Western blot with antibodies against BACE1 (Yan et al., 2001), nicastrin (Leem et al., 2002) or Myc. APP βCTF accumulation can also be attributed to a decrease in γ-secretase-mediated cleavage.

[3] = test system: γ-secretase; assay: γ-secretase cleavage on Notch (NICD generation) and nicastrin level; type: cell-based, mouse
Text: The levels of the recombinant Notch (NotchΔE with Myc-tag) and the γ-secretase cleaved Notch fragment (NICD) were quantified by Western blotting using myc antibody and an antibody specific to processed Notch followed by densitometry. […] The results represent at least four independent experiments.
N2a cells were transfected with Myc-tagged Notch1 NΔE construct lacking the ectodomain, which allows ligand-independent processing by γ-secretase to produce NICD (Schroeter et al., 1998). NICD generation was analyzed by immunoblot with an antibody specifically recognizing the cleaved Notch product NICD (Cell Signaling Technology).
Cleavage of Notch, another important γ-secretase substrate (Kopan and Goate, 2000), was not altered by FG01 overexpression. N2a cells were transfected with Myc-tagged Notch1 NΔE construct. After equal splitting, cells were transfected with control vector (Con) or FG01. Cell lysates were subjected to SDS-PAGE and Western blot with the Myc antibody (recognizing both exogenous FG01 and Notch NΔE) and with an NICD-specific antibody. Protein levels of nicastrin, an important component of the γ-secretase complex, were also not affected by FG01 overexpression.

[4] = test system: PKA; assay: PKA in vitro activity and CREB phosphorylation in FG01-transfected cells; type: cell-based, mouse
Description: After lysis, cell lysates were assayed for PKA activity, using a commercial kit and following the manufacturer's protocol (Upstate, catalog number 17-134). n=4.
(§1) Commercial kits were used to assay in vitro activities of GSK-3β (Sigma) and PKA (Upstate). For GSK-3α activity, a commercial GSK-3β activity assay kit was used but the procedure to immunoprecititate GSK-3β was replaced with immunoprecipitation of GSK-3α using an anti-GSK-3α antibody (Cell Signaling). cAMP levels were assayed using a commercial kit (Biovision).
Inhibition of GSK-3 activity via phosphorylation of serine 21 in GSK-3α and serine 9 in GSK-3β can be mediated by protein kinase A (PKA) (Fang et al., 2000), so whether FG01 regulates PKA activity was studied. […] Moreover, increased sAPPα secretion upon FG01 overexpression (FIG. 29A) is also likely due to PKA activation, because PKA can stimulate budding of APP-containing vesicles from the Trans-Golgi Network (TGN) and facilitates sAPPα generation (Xu et al., 1996).

[5] = test system: cAMP levels; assay: cAMP assay in mouse N2a cells; type: cell-based; conditions: FG01 overexpression
Text: (§2) After 48-72 hrs, cells were lysed and cell lysates were subjected to immunoprecipitation with mouse IgG, rabbit IgG, myc antibody and adenylyl cyclase (AC) antibody (Santa Cruz Biotechnology, catalog number sc-1701), and then immunoblotted with antibodies against adenylyl cyclase (AC) and myc, respectively.
as §1

[6] = test system: cAMP levels; assay: cAMP assay in rat PC12 cells; type: cell-based; conditions: FG01 overexpression
Description: as §1

[7] = test system: adenylate cyclases; assay: co-immunoprecipitation of FG01 with adenylate cyclases; type: binding, mouse; conditions: N2a cells overexpressing FG01
Description: as §2
Cells transfected with FG01 were lysed in either CHAPSO buffer (1% CHAPSO, 25 mM HEPES, pH7.4, 150 mM NaCl, and 2 mM EDTA supplemented with protease inhibitors) or in NP40 buffer (1% NP40 in phosphate buffered saline, supplemented with protease inhibitors). Lysates were immunoprecipitated using mouse IgG, rabbit IgG, and antibodies against Myc or adenylate cyclases and Trueblot™ IP beads (eBioscience), followed by Western blot with antibodies against Myc or adenylate cyclases.

[8] = test system: β-catenin; assay: β-catenin level in human HEK293 cells (Western blot); type: cell-based; conditions: FG01 expression
Text: Expression of β-catenin, inactivated phospho-GSK-3β, total GSK-3, APP, β-CTF and FG01 in transfected human HEK293 cells were shown by Western blots.

[9] = test system: APP; assay: APP trafficking to cell surface (biotinylation) in N2a/swe cells; type: cell-based, mouse; conditions: FG01-transfected N2a/swe cells
Text: After treated with biotin or DMSO, membrane protein and total cell lysates were subjected to Western blots for APP.

[10] = test system: PKA; assay: PKA inhibitor H89 treatment of FG01-transfected N2aSwe cells; type: cell-based, mouse; conditions: FG01-transfected cells treated with H89
Description: After 48 hr incubation, cell media were changed to Opti-MEM (Invitrogen) containing DMSO or a PKA activity inhibitor H89 (2 μM) and cells were incubated for additional 4 hrs. The cell media were used for Aβ immunoprecipitation-Western blotting and cell lysates were subjected to Western blotting for p-CREB (substrate for PKA) and p-GSK3β. As shown, inhibiting PKA activity with H89 prevented serine phosphorylation of CREB and GSK3β by FG01.
N2aSwe cells were transfected with control vector or FG01 and then equally split. Four hours before collection, cells were treated with the GSK-3 inhibitor lithium chloride (5 mM) or sodium chloride (5 mM, as control). Alternatively, cells were treated with a PKA inhibitor H89 at 10 μM or with DMSO for control.

[11] = ELISA, HeLaSwe cells, FG01 expression

B1: FG01: 141 amino acid transmembrane protein encoded by mouse retrogene fg01 (SEQ ID NO:2); expressed from transfected vector or transgene (protein)
chain: MQSQQRNIGYFNHLKADSRNITYSMTFSTKSSNQNFIIFLNEVQAAIIGHERCDLLPVLNELHPDALPDGRIWLFGLNPYFFQHNSLCMRGTPKRIGLQGCAQVGFLVLFVMPLLIPSVTAELPGSSETTTLAHLAGATGP
modifications: Myc and His6 tags; homo sapien
notes: expressed from transfected vector or transgene
For B1, the Aβ40 level [1, 11] was “significantly reduced”, the Aβ42 level [1, 11] was “significantly reduced” and the “effects of overexpression of GSK-3β on Aβ production” value ([1]; HeLa/swe cells transfected with GSK-3β and/or FG01, Aβ40/42 ELISA) was “suppressed”. For the same molecule, the “Aβ levels / Aβ generation” value ([1]; mouse FG01 expressed in HeLa cells with APP Swedish mutant) was “decreases; also recorded: reduced Aβ generation”, the “accumulation of sAPPα” value ([1]; mouse FG01 in HeLaSwe cells) was “increased accumulation” and the “accumulation of βCTF” value ([1]; mouse FG01 in HeLaSwe cells) was “increased accumulation”. For the same molecule, the “protein level of BACE1” value ([2]; FG01-overexpressing N2a cells, Western blot) was “unchanged”, the “β-secretase (BACE1) activity” value ([2]; in vitro assay, FG01-overexpressing cells) was “did not significantly change; also recorded: unchanged” and the “protein levels of nicastrin” value ([3]; FG01 overexpression in N2a cells) was “not affected”. The Notch cleavage ([3]; Notch ΔE cotransfected with FG01) was “not altered”, the PKA activity ([4]; FG01-transfected N2a/Swe cells vs control) was “significantly increase; also recorded: significantly more PKA activity” and the “phosphorylation of CREB (PKA substrate)” value ([4]; FG01 overexpression) was “increased”. For the same molecule, the “increase of cAMP levels” value [5] was 38%, the “increase of cAMP levels” value [6] was 75% and the “interaction with adenylate cyclases” value [7] was “interacts”. The “level of β-catenin” value [8] was “increases”, the “APP trafficking to cell surface” value [9] was “stimulates” and the “inhibition of Aβ generation when PKA suppressed by H89” value [10] was “failed to inhibit”. For the same molecule, the “inhibition of GSK-3 activity when PKA suppressed by H89” value [10] was “failed to inhibit”.

From patent US20090233993A1, “COMPOSITIONS AND METHODS FOR INHIBITING GSK3 ACTIVITY AND USES THEREOF” (Burnham Institute for Medical Research, priority 2008, published 2009)
